Literature values, collected in paper PMC4264850.

Molecular target: EGFR (Homo sapiens) (UniProt P00533)

- Kd: 0.34 nM
Substance: matuzumab
